{"source": "paper PMC11506546", "about": "“Tropomyosin Isoforms Segregate into Distinct Clusters on Single Actin Filaments” (Biomolecules, 2024)", "conditions_in_all_cases": "both partners purified", "key": {"[1]": {"biological_target": "rabbit skeletal-muscle F-actin (rabbit, UniProt P68135 1-377)", "experiment": "co-sedimentation; 0.2-3.5 µM tropomyosin with 3 µM F-actin in T buffer (150 mM NaCl, 10 mM Tris-HCl pH 7.5, 2 mM MgCl2), 50 µL, 1 h at room temperature; 670,000 x g, 20 °C, 30 min; SDS-PAGE densitometry; Hill equation fit; apparent Kd"}, "[2]": {"biological_target": "α-actin filament (muscle actin, polymerized from G-actin) (UniProt P68135 1-377)", "experiment": "TIRF microscopy of tropomyosin-decorated single actin filaments; control experiments: the same Tpm isoform labeled with AF488 and with AF568 (0.015 µM of each) mixed with 1 µM G-actin in D buffer, polymerized with 50 mM NaCl for 5-10 min, 10% PEG 300; decorated filaments captured on PLL-PEG/BSA coverslips in microfluidic channels, washed with TIR50 buffer"}, "[3]": {"biological_target": "β-actin filament (cytoskeletal actin, polymerized from G-actin) (UniProt P60709 1-375)", "experiment": "TIRF microscopy of tropomyosin-decorated single actin filaments; control experiments: the same Tpm isoform labeled with AF488 and with AF568 (0.015 µM of each) mixed with 1 µM G-actin in D buffer, polymerized with 50 mM NaCl for 5-10 min, 10% PEG 300; decorated filaments captured on PLL-PEG/BSA coverslips in microfluidic channels, washed with TIR50 buffer"}}}
{"binder": "Tpm1.6 AF488 (Tpm1.6 labeled at Cys-190 with Alexa Fluor 488 C5 maleimide) (natural protein, Alexa Fluor 488 C5 maleimide on Cys-190 (monomer labeling ratio approximately 95%)) not shown", "values": [{"measurement": "Kd", "setting": "[1]", "value": 1210, "unit": "nM"}]}
{"binder": "Tpm1.6 AF568 (Tpm1.6 labeled at Cys-190 with Alexa Fluor 568 C5 maleimide) (natural protein, Alexa Fluor 568 C5 maleimide on Cys-190 (monomer labeling ratio approximately 95%)) not shown", "values": [{"measurement": "Kd", "setting": "[1]", "value": 2370, "unit": "nM"}, {"measurement": "ratio of Tpm in Ch1 (red, AF568)/Ch2 (green, AF488) on the filament, median", "setting": "[2]", "value": 0.7}, {"measurement": "ratio of Tpm in Ch1 (red, AF568)/Ch2 (green, AF488) on the filament, median", "setting": "[3]", "value": 0.7}]}
